# Results reported in patent US20240398911A1.
# What was measured:
# Assay in all cases: BLI, sACE22-IgG1 immobilized, RBD-8h analyte
# [1] = biological target: 8his-tagged RBD of the S protein of bat coronavirus isolate Rs4084 (bat coronavirus Rs4084)
# [2] = biological target: 8his-tagged RBD of the S protein of bat coronavirus isolate RsSHC014 (bat coronavirus RsSHC014)
# [3] = biological target: 8his-tagged RBD of the S protein of bat coronavirus isolate LYRa11 (bat coronavirus LYRa11)
# [4] = biological target: 8his-tagged RBD of the S protein of bat coronavirus isolate Rs7327 (bat coronavirus Rs7327)
# [5] = biological target: 8his-tagged RBD of the S protein of bat coronavirus isolate Rs4231 (bat coronavirus Rs4231)
substance,measurement,setting,value
wild type dimeric sACE22 (a.a. S19-G732) fused to the Fc of human IgG1 (from UniProt Q9BYF1 19-732) (Fc fusion),Kd,[1],85 nM
same,koff,[1],0.025 s⁻¹
same,kon,[1],290000 M⁻¹ s⁻¹
same,Kd,[2],29 nM
same,koff,[2],0.026 s⁻¹
same,kon,[2],880000 M⁻¹ s⁻¹
same,Kd,[3],91 nM
same,koff,[3],0.079 s⁻¹
same,kon,[3],870000 M⁻¹ s⁻¹
same,Kd,[4],63 nM
same,koff,[4],0.04 s⁻¹
same,kon,[4],640000 M⁻¹ s⁻¹
same,Kd,[5],69 nM
same,koff,[5],0.022 s⁻¹
same,kon,[5],320000 M⁻¹ s⁻¹
